Source: patent publication US20130165347

Tested on: Terminal deoxynucleotidyl transferase (TdT, pCMV-TdT / pMTdT)
Assay: cell_activity
Settings: wild-type CHO KA8 cells, 19 of 27 clones, I-SceI-cleaved ends; 4% without TdT; N addition absent in Ku80- or XRCC4-deficient cells

TACCCTGTTATCCCTA (double strand) gave an activity (% junctions with N additions) of 70.
